Measurements: EP1471146A2 (Novartis AG, dated 2004)

Biological target: the molecule itself
Assay: Western blot of soluble nuclear extracts, seminative electrophoresis (self-association, homotrimer)

B1: recombinant adenovirus type 5 (Ad5) fiber protein expressed from pCLF in cell lines 211A, 211B and 211R (other)
chain: MKRARPSEDTFNPVYPYDTETGPPTVPFLTPPFVSPNGFQESPPGVLSLRLSEPLVTSNGMLALKMGNGLSLDEAGNLTSQNVTTVSPPLKKTKSNINLEISAPLTVTSEALTVAAAAPLMVAGNTLTMQSQAPLTVHDSKLSIATQGPLTVSEGKLALQTSGPLTTTDSSTLTITASPPLTTATGSLGIDLKEPIYTQNGKLGLKYGAPLHVTDDLNTLTVATGPGVTINNTSLQTKVTGALGFDSQGNMQLNVAGGLRIDSQNRRLILDVSYPFDAQNQLNLRLGQGPLFINSAHNLDINYNKGLYLFTASNNSKKLEVNLSTAKGLMFDATAIAINAGDGLEFGSPNAPNTNPLKTKIGHGLEFDSNKAMVPKLGTGLSFDSTGAITVGNKNNDKLTLWTTPAPSPNCRLNAEKDAKLTLVLTKCGSQILATVSVLAVKGSLAPISGTVQSAHLIIRFDENGVLLNNSFLDPEYWNFRNGDLTEGTAYTNAVGFMPNLSAYPKSHGKTAKSNIVSQVYLNGDKTKPVTLTITLNGTQETGDTTPSAYSMSFSWDWSGHNYINEIFATSSYTFSYIAQE
notes: Monomer 62 kD, homotrimer 186 kD; Expressed in 293-derived lines 211A, 211B and 211R; also called recombinant fiber; type 5 fiber protein
Does B1 bind?
Result: binds
